The target of one assay is T1, ABCB1-YFP E1.007A (Arabidopsis, UniProt Q9ZR72 1-1286, E1.007A).
T1 sequence: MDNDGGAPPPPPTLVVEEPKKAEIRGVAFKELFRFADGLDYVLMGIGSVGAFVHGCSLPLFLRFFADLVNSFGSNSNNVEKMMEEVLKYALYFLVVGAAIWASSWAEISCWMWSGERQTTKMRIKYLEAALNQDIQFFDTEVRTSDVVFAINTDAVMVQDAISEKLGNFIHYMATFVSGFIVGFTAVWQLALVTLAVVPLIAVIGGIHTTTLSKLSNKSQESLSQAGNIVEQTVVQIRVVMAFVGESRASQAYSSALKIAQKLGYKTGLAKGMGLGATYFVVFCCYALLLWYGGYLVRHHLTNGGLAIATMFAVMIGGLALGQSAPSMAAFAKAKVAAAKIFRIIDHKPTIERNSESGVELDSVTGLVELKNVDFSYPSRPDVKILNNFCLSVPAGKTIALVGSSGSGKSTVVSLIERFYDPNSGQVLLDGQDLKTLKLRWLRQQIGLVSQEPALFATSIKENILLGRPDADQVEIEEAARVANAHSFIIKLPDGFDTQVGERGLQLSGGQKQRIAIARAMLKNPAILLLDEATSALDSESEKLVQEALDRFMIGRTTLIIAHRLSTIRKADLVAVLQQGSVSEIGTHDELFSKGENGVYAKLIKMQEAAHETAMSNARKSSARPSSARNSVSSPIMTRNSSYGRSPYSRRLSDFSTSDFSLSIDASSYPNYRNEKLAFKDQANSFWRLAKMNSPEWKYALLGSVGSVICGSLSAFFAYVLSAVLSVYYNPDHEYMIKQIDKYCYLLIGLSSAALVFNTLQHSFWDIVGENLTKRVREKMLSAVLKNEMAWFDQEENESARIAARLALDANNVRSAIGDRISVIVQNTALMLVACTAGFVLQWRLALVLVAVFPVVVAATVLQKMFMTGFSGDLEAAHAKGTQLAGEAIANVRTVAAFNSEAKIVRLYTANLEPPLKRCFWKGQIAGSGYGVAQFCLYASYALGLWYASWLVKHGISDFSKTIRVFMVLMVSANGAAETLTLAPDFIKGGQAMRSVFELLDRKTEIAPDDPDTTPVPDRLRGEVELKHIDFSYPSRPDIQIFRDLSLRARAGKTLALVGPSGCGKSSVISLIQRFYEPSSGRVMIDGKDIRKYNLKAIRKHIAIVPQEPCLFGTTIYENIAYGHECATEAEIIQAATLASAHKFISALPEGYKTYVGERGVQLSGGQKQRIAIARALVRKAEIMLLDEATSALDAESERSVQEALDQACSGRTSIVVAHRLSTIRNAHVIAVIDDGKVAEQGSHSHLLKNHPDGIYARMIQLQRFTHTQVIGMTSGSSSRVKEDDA
The assay is described as follows: FRET or BRET. On the technique in general: Bioluminescence resonance energy transfer reports proximity on the nanometre scale.

Another assay has as its target T2, ABCB1-YFP P1.008G (Arabidopsis, UniProt Q9ZR72 1-1286, P1.008G).
T2 sequence: T1 sequence with A1007E, P1008G
Nature of the assay: FRET or BRET.

Where a chain is given by its changes, count along the chain named.

This note sets out measurements from publication doi:10.1101/2020.05.08.084087 (bioRxiv, 2020).

B1: TWD1-Rluc (natural protein)
chain: MDESLEHQTQTHDQESEIVTEGSAVVHSEPSQEGNVPPKVDSEAEVLDEKVSKQIIKEGHGSKPSKYSTCFLHYRAWTKNSQHKFEDTWHEQQPIELVLGKEKKELAGLAIGVASMKSGERALVHVGWELAYGKEGNFSFPNVPPMADLLYEVEVIGFDETKEGKARSDMTVEERIGAADRRKMDGNSLFKEEKLEEAMQQYEMAIAYMGDDFMFQLYGKYQDMALAVKNPCHLNIAACLIKLKRYDEAIGHCNIVLTEEEKNPKALFRRGKAKAELGQMDSARDDFRKAQKYAPDDKAIRRELRALAEQEKALYQKQKEMYKGIFKGKDEGGAKSKSLFWLIVLWQWFVSLFSRIFRRHRVKAD
Consider B1, for which the “reduction of the BRET ratio against Wt ABCB1-YFP” value was ~39% with ABCB1-YFP E1.007A and ~17% with ABCB1-YFP P1.008G.
